Measurements from paper PMC3335814, “Structure of an Enzyme-Derived Phosphoprotein Recognition Domain” (PLoS ONE, 2012).

How the values were obtained:
[1] = molecular target: Pins Linker peptide (residues 427-445), pSer436, TMR-labelled (Drosophila) (UniProt Q9VB22); assay: fluorescence polarisation; steady state anisotropy of 0.5 µM TMR-labelled Pins peptide (427-445) with increasing concentrations of Dlg constructs; 20 mM Tris pH 8, 100 mM NaCl, 1 mM DTT; nonlinear regression
[2] = molecular target: Pins Linker peptide (residues 427-445), unphosphorylated, TMR-labelled (Drosophila) (UniProt Q9VB22); assay: as above
[3] = molecular target: Pins Linker peptide (residues 427-445), pSer436, TMR-labelled (UniProt Q9VB22); assay: fluorescence polarisation; details: read from the fitted curve at 20 µM Dlg-GK; parent: est. 0.11; read off a plot
[4] = molecular target: T1, Dlg SH3-GK ΔHook (residues 598-975 without 679-766), as it stands in the fusion (Drosophila, UniProt P31007-5 598-975, Δ679-766); assay: crystal structure; Dlg SH3-GK ΔHook and Pins Linker S436D joined on one chain; vapor diffusion, 2 M NaCl, 0.1 M NaOAc pH 4.6; data to 1.6 Å; one molecule in the asymmetric unit; details: both partners purified
T1 construct: Existed only joined to m11 on one chain; written apart for the pair seen in the crystal structure; also called Dlg GK^dom and its adjacent SH3 domain; GK^dom; source: E. coli BL21(DE3), purified (NiNTA, anion exchange, size exclusion), as part of the fusion m8
T1 sequence (looked up): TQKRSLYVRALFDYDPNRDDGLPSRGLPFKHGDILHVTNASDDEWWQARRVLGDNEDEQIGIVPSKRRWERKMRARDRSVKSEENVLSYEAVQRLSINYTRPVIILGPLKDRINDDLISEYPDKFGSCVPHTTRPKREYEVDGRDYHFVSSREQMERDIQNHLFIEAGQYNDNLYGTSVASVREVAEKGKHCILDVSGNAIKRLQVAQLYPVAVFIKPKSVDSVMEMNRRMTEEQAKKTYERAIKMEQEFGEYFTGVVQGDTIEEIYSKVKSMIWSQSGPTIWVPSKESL

Molecule	Kd [1]	response [3]	other results
Dlg GK domain (isolated GK^dom) (domain or fragment)	800 nM		Kd [2]: > 200000 nM
Dlg GK domain (isolated GK^dom) R822A		0.083	
Dlg GK domain (isolated GK^dom) Y824A		0.11	
Dlg GK domain (isolated GK^dom) Y831A		0.017	
Dlg GK domain (isolated GK^dom) Y855A		0.08	
Dlg SH3-GK module (domain or fragment)	300 nM		
Dlg SH3GK fused to Pins Linker without the phosphomimetic (from UniProt P31007-5 598-975; Q9VB22 411-460)	300 nM		
ΔHook/Pins^S436D fusion protein (Dlg 598-975 without 679-766, fused to Pins 411-460 S436D) (from UniProt P31007-5 598-975; Q9VB22 411-460)	14000 nM		
DHSASGNQSDGSENSQGRMVRVRRQDMEQLDLIKITPDGKRMQEEKLRAQ (domain or fragment, Drosophila, UniProt Q9VB22 411-460, looked up, Partner of Inscuteable (Pins), Linker, residues 411-460, phosphomimetic S436D; Existed only joined to m10 on one chain; written apart for the pair seen in the crystal structure; also called Pins^LINKER S436D; Pins^S436D; source: E. coli BL21(DE3), purified (NiNTA, anion exchange, size exclusion), as part of the fusion m8) [Pins Linker (residues 411-460) S436D, as it stands in the fusion]			binding result [4]: binds
